Key:
mouse CD300c = target: T1, mouse CD300c (mouse); test: cell-based or functional assay
T1 sequence (A2A7V7 whole entry, looked up): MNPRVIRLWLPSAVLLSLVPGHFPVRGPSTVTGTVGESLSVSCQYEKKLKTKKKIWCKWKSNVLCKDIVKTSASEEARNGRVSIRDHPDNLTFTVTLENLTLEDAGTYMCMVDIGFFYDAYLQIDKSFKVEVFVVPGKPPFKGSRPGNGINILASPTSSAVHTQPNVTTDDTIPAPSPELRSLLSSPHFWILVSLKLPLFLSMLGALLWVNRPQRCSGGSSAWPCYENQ

[1] = target: T2, CD300c antigen (11832-H08H, Sino Biological) (human, UniProt Q08708 21-183); test: SPR, CD300c immobilised on the chip (399.2 RU), CL7 as analyte at 0-6.25 µg/mL; CD300c on the chip, CL7 as analyte
T2 construct: Bought antigen; also called CD300c protein; CD300 antigen-like family member C
T2 sequence (looked up): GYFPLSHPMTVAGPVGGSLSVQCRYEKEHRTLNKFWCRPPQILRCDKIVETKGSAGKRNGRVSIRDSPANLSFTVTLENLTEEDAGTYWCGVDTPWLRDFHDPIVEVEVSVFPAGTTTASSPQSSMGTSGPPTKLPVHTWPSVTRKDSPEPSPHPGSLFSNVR
Description: In order to identify the binding affinity between the antigen CD300c and the anti-CD300c monoclonal antibody CL7, a surface plasmon resonance experiment was performed.
To immobilize CD300c on a […], 5 μg/mL of CD300c was diluted in 10 mM acetate buffer (pH 5.5). Then, the flow rates were all set equally to […], and the target RU was respectively set to 300 RU. […] by a mixture of 0.2 M EDC and 0.05 M NHS, and blocked with 1 M ethanolamine to perform the immobilization so that the final RU of CD300c became 399.2 RU. Then, CL7 was diluted in PBSP to concentrations of 0, 0.195, 0.39, 0.78, 1.56, 3.125, and 6.25 μg/mL, separately. […] Subsequently, 50 mM NaOH was allowed to flow at a rate of 30 μL/min for 30 seconds to regenerate the surface.

[2] = target: T2, CD300c antigen (11832-H08H, Sino …); test: binding ELISA on coated CD300c antigen (800 ng/mL), anti-Fc secondary antibody, 450 nm (Experimental Example 2.3)
Description: CD300c antigen (250 ug/mL) was diluted to a concentration of 800 ng/mL in coating buffer (0.1 M sodium carbon ate, pH 9.0), placed into a 96-well microplate at 100 μL per well, and incubated at 4° C. overnight. The next day, the microplate was washed three times with 200 μL of PBST. Thereafter, 200 μL of a blocking buffer (5% skim milk) was added thereto, followed by blocking at room temperature for 1 hour. The anti-CD300c monoclonal antibody CL7 was diluted to 200 μg/mL in PBS, and the concentration thereof was checked by measurement using Nanodrop (product name: NanoDrop One/One, manufactured by Thermo Fisher Scientific). Subsequently, CL7 was diluted in quadruplicate with PBS starting from 10 μg/mL, and added at 100 μL each, followed by incubation at room temperature for 1 hour. After the incubation, the microplate was washed three times with […] of PBST. A secondary antibody (conjugated anti-Fc IgG) was diluted 1:10,000 in blocking buffer, and added at 100 μL, followed by incubation at room temperature for 1 hour, and then washed three times with 200 μL of PBST. Subsequently, TMB and hydrogen peroxide were mixed 1:1, and added at 100 μL per well, followed by incubation at room temperature for 7 to 9 minutes.

B1: CL7 (antibody, V domains shown)
VH: EVQLLESGGGLVQPGGSLRLSCAASGFTFSRYAMSWVRQAPGKGLEWVSAISGSGGSTYYADSVKGRFTISRDNSKNTLYLQMNSLRAEDTAVYYCARSSQGIFDIWGQGTLVTVSS
VL: QSVLTQPPSASGTPGQRVTISCSGNNIGTRRVHWYQQLPDTAPKLLIYSKNNRPSGVPDRFSGSKSGTSASLAISGLRSEDEADYYCAAWDDSLSGPVFGGGTKLTVL
notes: detected with anti-human IgG (H+L) and anti-Fc IgG; also called anti-CD300c monoclonal antibody CL7; anti-CD300c monoclonal antibody (CL7)
cancer cell proliferation inhibitory effect, CT26 mouse colon cancer cells, 10 ug/mL antibody, 5 days, CCK-8 (mouse CD300c): 66%
Kd [1]: 0.52 nM
EC50 (read off the curve) [2]: ~0.06 µg/mL
